Experimental data published in patent publication US20160185832A1.

Legend:
[1] = molecular target: microtubules polymerized in mouse brain homogenate (mouse) (UniProt P05213); assay: microtubule co-sedimentation from mouse brain homogenate, western blot (FIG. 6F)
[2] = molecular target: microtubule network of cultured human cells (hTERT-RPE1, 293T) (human) (UniProt P68363); assay: cell-based or functional assay
[3] = molecular target: pure, pre-polymerized, taxol-stabilized microtubules of bovine tubulin (Cytoskeleton) (bovine) (UniProt P81947); assay: in vitro microtubule co-sedimentation, percent of construct in the microtubule pellet (FIG. 4D)
Sequence of pure, pre-polymerized, taxol-stabilized microtubules of bovine tubulin (Cytoskeleton) (bovine) (P81947 whole entry, chain 1 of 2): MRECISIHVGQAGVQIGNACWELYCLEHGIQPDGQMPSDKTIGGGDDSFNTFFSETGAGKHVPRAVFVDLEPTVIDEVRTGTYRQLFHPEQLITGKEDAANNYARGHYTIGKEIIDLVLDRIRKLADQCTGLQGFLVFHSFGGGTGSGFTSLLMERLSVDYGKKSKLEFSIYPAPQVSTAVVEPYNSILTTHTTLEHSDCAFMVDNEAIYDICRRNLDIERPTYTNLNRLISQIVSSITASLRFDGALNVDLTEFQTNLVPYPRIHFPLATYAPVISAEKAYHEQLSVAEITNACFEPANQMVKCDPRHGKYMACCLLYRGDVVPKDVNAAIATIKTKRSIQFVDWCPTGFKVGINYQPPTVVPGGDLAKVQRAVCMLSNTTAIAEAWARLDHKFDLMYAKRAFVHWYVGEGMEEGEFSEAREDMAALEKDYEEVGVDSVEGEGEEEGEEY
Sequence of pure, pre-polymerized, taxol-stabilized microtubules of bovine tubulin (Cytoskeleton) (bovine) (Q6B856 whole entry, chain 2 of 2, further chain): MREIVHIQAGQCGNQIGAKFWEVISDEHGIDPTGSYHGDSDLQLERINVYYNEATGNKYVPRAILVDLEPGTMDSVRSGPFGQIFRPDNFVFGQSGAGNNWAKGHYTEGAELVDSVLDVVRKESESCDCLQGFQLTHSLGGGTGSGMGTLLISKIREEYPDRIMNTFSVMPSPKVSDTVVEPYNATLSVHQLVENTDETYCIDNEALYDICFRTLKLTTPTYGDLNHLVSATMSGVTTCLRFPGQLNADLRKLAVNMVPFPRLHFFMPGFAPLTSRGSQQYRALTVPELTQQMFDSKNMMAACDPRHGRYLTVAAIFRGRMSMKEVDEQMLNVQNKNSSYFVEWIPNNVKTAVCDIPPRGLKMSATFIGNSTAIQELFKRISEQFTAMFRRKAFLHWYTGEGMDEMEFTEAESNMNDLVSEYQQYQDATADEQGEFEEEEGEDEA

Sequence of microtubule network of cultured human cells (hTERT-RPE1, 293T) (human) (P68363 whole entry, chain 1 of 2): as the sequence (P81947 whole entry, chain 1 of 2) above
Sequence of microtubule network of cultured human cells (hTERT-RPE1, 293T) (human) (P07437 whole entry, chain 2 of 2, further chain): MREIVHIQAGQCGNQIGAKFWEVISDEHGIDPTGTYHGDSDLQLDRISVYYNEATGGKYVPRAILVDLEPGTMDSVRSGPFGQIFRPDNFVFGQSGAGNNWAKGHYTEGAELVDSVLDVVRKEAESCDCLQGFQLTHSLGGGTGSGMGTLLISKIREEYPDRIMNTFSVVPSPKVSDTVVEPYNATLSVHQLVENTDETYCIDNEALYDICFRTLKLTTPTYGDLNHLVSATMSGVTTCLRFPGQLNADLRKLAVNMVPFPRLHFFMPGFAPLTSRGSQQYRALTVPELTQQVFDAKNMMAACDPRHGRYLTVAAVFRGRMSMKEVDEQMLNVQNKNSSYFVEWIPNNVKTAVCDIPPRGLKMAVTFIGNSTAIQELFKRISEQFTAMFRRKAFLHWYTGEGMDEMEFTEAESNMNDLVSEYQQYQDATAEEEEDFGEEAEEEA
Sequence of microtubules polymerized in mouse brain homogenate (mouse) (P05213 whole entry, chain 1 of 2): as the sequence (P81947 whole entry, chain 1 of 2) above
Sequence of microtubules polymerized in mouse brain homogenate (mouse) (Q9CWF2 whole entry, chain 2 of 2, further chain): as the sequence (Q6B856 whole entry, chain 2 of 2, further chain) above

percent associated with microtubules [1] [%]	percent of transfected cells with increased microtubule acetylation and bundling [2] [%]	percent of transfected hTERT-RPE1 cells with a fibrillar localization pattern [2] [%]	percent associated with microtubules [3] [%]	Substance
60				full length wild type (WT) mouse Cep290 from mouse brain homogenate, Q6A078 1-2472
	40	10	< 50	GFP fusion of full length human CEP290 (aa 1-2479), O15078 1-2479
